These results are taken from the supplement of paper PMC11811203.

B1: THAP1; numbered along this chain (parent)
chain: MVQSCSAYGCKNRYDKDKPVSFHKFPLTRPSLCKEWEAAVRRKNFKPTKYSSICSEHFTPDCFKRECNNKLLKENAVPTIFLCTEPHDKKEDLLEPQEQLPPPPLPPPVSQVDAAIGLLMPPLQTPVNLSVFCDHNYTVEDTMHQRKRIHQLEQQVEKLRKKLKTAQQRCRRQERQLEKLKEVVHFQKEKDDVSERGYVILPNDYFEIVEVPA

Variants of B1 are the subject of the data set. Nature of the data set: THAP1 transcriptional activity (GFP+/GFP- enrichment relative to wild-type constructs) (ratio to WT); higher = more THAP1 activity (PSMB5 reporter activation). Particulars: with PSMB5 promoter-GFP reporter. In short, it runs like this:
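Variants were counted by Illumina sequencing of genomic DNA amplicons from BFP+ cells sorted into GFP-bright and GFP-dim bins five days after lentiviral transduction, in duplicate at MOI ~0.3. The library changed each of residues 2–213 of human THAP1 to all 20 amino acids and was introduced into THAP1-knockout HEK-293T cells with mClover3 knocked in at endogenous PSMB5. Activity equals the replicate-mean bright/dim read fold change over the mean of wild-type synonymous constructs.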
Regarding MVQSCSAYGCKNRYDKDKPVSFHKFPLTRPSLCKEWEAAVRRKNFKPTKYSSICSEHFTPDCFKRECNNKLLKENAVPTIFLCTEPHDKKEDLLEPQEQLPPPPLPPPVSQVDAAIGLLMPPLQTPVNLSVFCDHNYTVEDTMHQRKRIHQLEQQVEKLRKKLKTAQQRCRRQERQLEKDKEVVHFQKEKDDVSERGYVILPNDYFEIVEVPA [L180D], the THAP1 transcriptional activity is 0.256.
As for MVQSCSAYGCKNRYDKDKPVSFHKFPLTRPSLCKEWEAAVRRKNFKPTKYSSICSEHFTPDCFKRECNNKLLKENAVPTIFLCTEPHDKKEDLLEPQEQLPPPPLPPPVSQVDAAIGLLMPPLQTPVNLSVFCDHNYTVEDTMHQRKRIHQLEQQVEKLRKKLKTAQQRCRRQERQLEKAKEVVHFQKEKDDVSERGYVILPNDYFEIVEVPA [L180A], the THAP1 transcriptional activity was 0.484.
As to MVQSCSAYGCKNRYDKDKPVSFHKFPLTRPSLCKEWEAAVRRKNFKPTKYSSICSEHFTPDCFKRECNNKLLKENAVPTIFLCTEPHDKKEDLLEPQEQLPPPPLPPPVSQVDAAIGLLMPPLQTPVNLSVFCDHNYTVEDTMHQRKRIHQLEQQVEKLRKKLKTAQQRCRRQERQLEKCKEVVHFQKEKDDVSERGYVILPNDYFEIVEVPA [L180C], the THAP1 transcriptional activity was determined as 0.43.
Turning to MVQSCSAYGCKNRYDKDKPVSFHKFPLTRPSLCKEWEAAVRRKNFKPTKYSSICSEHFTPDCFKRECNNKLLKENAVPTIFLCTEPHDKKEDLLEPQEQLPPPPLPPPVSQVDAAIGLLMPPLQTPVNLSVFCDHNYTVEDTMHQRKRIHQLEQQVEKLRKKLKTAQQRCRRQERQLTKLKEVVHFQKEKDDVSERGYVILPNDYFEIVEVPA [E178T], the THAP1 transcriptional activity was 1.26.
Turning to MVQSCSAYGCKNRYDKDKPVSFHKFPLTRPSLCKEWEAAVRRKNFKPTKYSSICSEHFTPDCFKRECNNKLLKENAVPTIFLCTEPHDKKEDLLEPQEQLPPPPLPPPVSQVDAAIGLLMPPLQTPVNLSVFCDHNYTVEDTMHQRKRIHQLEQQVEKLRKKLKTAQQRCRRQERQLVKLKEVVHFQKEKDDVSERGYVILPNDYFEIVEVPA [E178V], the THAP1 transcriptional activity was 0.568.
On to MVQSCSAYGCKNRYDKDKPVSFHKFPLTRPSLCKEWEAAVRRKNFKPTKYSSICSEHFTPDCFKRECNNKLLKENAVPTIFLCTEPHDKKEDLLEPQEQLPPPPLPPPVSQVDAAIGLLMPPLQTPVNLSVFCDHNYTVEDTMHQRKRIHQLEQQVEKLRKKLKTAQQRCRRQERQLNKLKEVVHFQKEKDDVSERGYVILPNDYFEIVEVPA [E178N], for which the THAP1 transcriptional activity came out at 0.394.
For the variant MVQSCSAYGCKNRYDKDKPVSFHKFPLTRPSLCKEWEAAVRRKNFKPTKYSSICSEHFTPDCFKRECNNKLLKENAVPTIFLCTEPHDKKEDLLEPQEQLPPPPLPPPVSQVDAAIGLLMPPLQTPVNLSVFCDHNYTVEDTMHQRKRIHQLEQQVEKLRKKLKTAQQRCRRQERQLSKLKEVVHFQKEKDDVSERGYVILPNDYFEIVEVPA [E178S], the THAP1 transcriptional activity was found to be 1.45.
For MVQSCSAYGCKNRYDKDKPVSFHKFPLTRPSLCKEWEAAVRRKNFKPTKYSSICSEHFTPDCFKRECNNKLLKENAVPTIFLCTEPHDKKEDLLEPQEQLPPPPLPPPVSQVDAAIGLLMPPLQTPVNLSVFCDHNYTVEDTMHQRKRIHQLEQQVEKLRKKLKTAQQRCRRQERQLMKLKEVVHFQKEKDDVSERGYVILPNDYFEIVEVPA [E178M], the THAP1 transcriptional activity worked out at 0.795.
In the case of MVQSCSAYGCKNRYDKDKPVSFHKFPLTRPSLCKEWEAAVRRKNFKPTKYSSICSEHFTPDCFKRECNNKLLKENAVPTIFLCTEPHDKKEDLLEPQEQLPPPPLPPPVSQVDAAIGLLMPPLQTPVNLSVFCDHNYTVEDTMHQRKRIHQLEQQVEKLRKKLKTAQQRCRRQERQLLKLKEVVHFQKEKDDVSERGYVILPNDYFEIVEVPA [E178L], the THAP1 transcriptional activity stood at 1.02.
Turning to MVQSCSAYGCKNRYDKDKPVSFHKFPLTRPSLCKEWEAAVRRKNFKPTKYSSICSEHFTPDCFKRECNNKLLKENAVPTIFLCTEPHDKKEDLLEPQEQLPPPPLPPPVSQVDAAIGLLMPPLQTPVNLSVFCDHNYTVEDTMHQRKRIHQLEQQVEKLRKKLKTAQQRCRRQERQLPKLKEVVHFQKEKDDVSERGYVILPNDYFEIVEVPA [E178P], the THAP1 transcriptional activity was determined as 0.226.
For MVQSCSAYGCKNRYDKDKPVSFHKFPLTRPSLCKEWEAAVRRKNFKPTKYSSICSEHFTPDCFKRECNNKLLKENAVPTIFLCTEPHDKKEDLLEPQEQLPPPPLPPPVSQVDAAIGLLMPPLQTPVNLSVFCDHNYTVEDTMHQRKRIHQLEQQVEKLRKKLKTAQQRCRRQERQLWKLKEVVHFQKEKDDVSERGYVILPNDYFEIVEVPA [E178W], the THAP1 transcriptional activity amounted to 0.7.
With MVQSCSAYGCKNRYDKDKPVSFHKFPLTRPSLCKEWEAAVRRKNFKPTKYSSICSEHFTPDCFKRECNNKLLKENAVPTIFLCTEPHDKKEDLLEPQEQLPPPPLPPPVSQVDAAIGLLMPPLQTPVNLSVFCDHNYTVEDTMHQRKRIHQLEQQVEKLRKKLKTAQQRCRRQERQLYKLKEVVHFQKEKDDVSERGYVILPNDYFEIVEVPA [E178Y], the THAP1 transcriptional activity worked out at 0.632.
The result for MVQSCSAYGCKNRYDKDKPVSFHKFPLTRPSLCKEWEAAVRRKNFKPTKYSSICSEHFTPDCFKRECNNKLLKENAVPTIFLCTEPHDKKEDLLEPQEQLPPPPLPPPVSQVDAAIGLLMPPLQTPVNLSVFCDHNYTVEDTMHQRKRIHQLEQQVEKLRKKLKTAQQRCRRQERQLEQLKEVVHFQKEKDDVSERGYVILPNDYFEIVEVPA [K179Q] reads 0.656; that for MVQSCSAYGCKNRYDKDKPVSFHKFPLTRPSLCKEWEAAVRRKNFKPTKYSSICSEHFTPDCFKRECNNKLLKENAVPTIFLCTEPHDKKEDLLEPQEQLPPPPLPPPVSQVDAAIGLLMPPLQTPVNLSVFCDHNYTVEDTMHQRKRIHQLEQQVEKLRKKLKTAQQRCRRQERQLEILKEVVHFQKEKDDVSERGYVILPNDYFEIVEVPA [K179I], 0.633.
